Measured values published in publication PMC2764445.
Read-outs that look alike come from different tables or passages of the source.

Experiments:
[1] = target: T1, Hfq (His-tagged; natural Hfq used in some experiments) (UniProt P0A6X3 1-102); test: fluorescence anisotropy
[2] = target: T1, Hfq (His-tagged; natural Hfq used in …); test: EMSA
[3] = target: T1, Hfq (His-tagged; natural Hfq used in …); test: EMSA; remark: listed apart in the source

T1 sequence (P0A6X3 whole entry): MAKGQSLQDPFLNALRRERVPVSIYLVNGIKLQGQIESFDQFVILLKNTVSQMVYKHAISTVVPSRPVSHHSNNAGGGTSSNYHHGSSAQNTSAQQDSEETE

| Binder | binding result [2] | further results |
| --- | --- | --- |
| CGAAUUUUUUAAGUGC (ssRNA) [D16-FAM] |  | Kd [1]: 23 ± 4 nM |
| CCAGGGCACTTAAAAAATTCGCCTGG (ssDNA) [dMB-D16] | no binding |  |
| CCCCTCGAATTTTTTAAGTGCAGGGG (ssDNA) [dMB-R16] | no binding |  |
| GCACUUAAAAAAUUCG (ssRNA) [R16] |  | binding result [3]: binds |
